Test results as given in patent US20170037136A1 (Janssen / Centocor, published 2017).
Changes are numbered by the printed parent chain. Names may count otherwise.

T1: shCD154-his (soluble human CD154, His6 fusion) (human, UniProt P29965 113-261)
T1 sequence: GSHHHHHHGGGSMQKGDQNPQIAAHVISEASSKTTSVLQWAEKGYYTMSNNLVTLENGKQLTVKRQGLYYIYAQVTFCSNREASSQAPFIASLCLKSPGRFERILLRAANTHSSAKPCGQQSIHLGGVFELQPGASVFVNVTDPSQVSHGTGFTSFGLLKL

T2: human CD154 endogenously expressed on D1.1 Jurkat cells (human, UniProt P29965 1-261)
T2 sequence: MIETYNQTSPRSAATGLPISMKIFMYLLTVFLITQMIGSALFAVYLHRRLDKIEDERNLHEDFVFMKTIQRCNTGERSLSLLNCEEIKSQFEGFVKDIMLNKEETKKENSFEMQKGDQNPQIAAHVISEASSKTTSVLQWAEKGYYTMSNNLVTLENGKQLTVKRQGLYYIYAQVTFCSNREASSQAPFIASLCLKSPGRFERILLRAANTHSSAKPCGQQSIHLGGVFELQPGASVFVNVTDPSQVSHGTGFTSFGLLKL

B1: C4LB237 (antibody, V domains shown)
VH: QVQLVQSGAEVKKPGSSVKVSCKASGGTFSSYGISWVRQAPGQGLEWMGWISPIFGNTNYAQKFQGRVTITADESTSTAYMELSSLRSEDTAVYYCARSRYYGDLDYWGQGTLVTVSS
VL: DIQMTQSPSSLSASVGDRVTITCRASQSISSYLNWYQQKPGKAPKLLIYYANSLQSGVPSRFSGSGSGTDFTLTISSLQPEDFATYYCQQSDSIPWTFGQGTKVEIK
notes: C4LB89 variable regions cloned as wild-type IgG1/kappa; also called C4LBB237
B2: C4LB83 (antibody, V domains shown)
VH: QVQLVQSGAEVKKPGSSVKVSCKASGGTFSSYAISWVRQAPGQGLEWMGWIIPIFGNTNYAQKFQGRVTITADESTSTAYMELSSLRSEDTAVYYCAREKDFRGYTKLDYWGQGTLVTVSS
VL: B1 VL with S30N, S31N, Y32W, Y50A, N52S, D92F, I94F, W96Y
notes: IgG2sigma
B3: C4LB189 (antibody, V domains shown)
VH: QVQLVQSGAEVKKPGASVKVSCKASGYTFAAYYIHWVRQAPGQGLEWMGRINPDSGGTDYAQRFQGRVTMTRDTSISTAYMELSRLRSDDTAVFYCARDWNYYDGSGYFGPGYYGLDVWGQGTTVTVSS
VL: SYELTQPPSVSVSPGQTASVTCSGDKLGDKYVCWYQRKPGQSPVLVIYQDRKRPSGIPERFSGSNSGNTATLTISGTQAIDEADYYCQAWDSGTVVFGRGTKLTVL
notes: IgG2sigma effector silent mAb; lambda VL; also called VH C4LH240; VL C4LL116
B4: C4LB191 (antibody, V domains shown)
VH: QVQLVQSGAEVKKPGASMKVSCKASGYTFTDYYIHWVRQAPGQGLEWVGRFNPNSGDTNGAQKFQGRVTMTRDTSISTAYMELTRLRSDDTAVYHCAREGELAGIFFDYWGQGTLVTVSS
VL: B3 VL with V20I, C33S, Y35N, Q36H, R37Q, I80M, G93S, R99G
notes: IgG2sigma effector silent mAb; lambda VL; also called VH C4LH242; VL IAPL39
B5: C4LB89 (antibody, human IgG2, kappa)
heavy: QVQLVQSGAEVKKPGSSVKVSCKASGGTFSSYGISWVRQAPGQGLEWMGWISPIFGNTNYAQKFQGRVTITADESTSTAYMELSSLRSEDTAVYYCARSRYYGDLDYWGQGTLVTVSSASTKGPSVFPLAPCSRSTSESTAALGCLVKDYFPEPVTVSWNSGALTSGVHTFPAVLQSSGLYSLSSVVTVPSSNFGTQTYTCNVDHKPSNTKVDKTVERKCCVECPPCPAPPAAASSVFLFPPKPKDTLMISRTPEVTCVVVDVSAEDPEVQFNWYVDGVEVHNAKTKPREEQFNSTFRVVSVLTVLHQDWLNGKEYKCKVSNKGLPSSIEKTISKTKGQPREPQVYTLPPSREEMTKNQVSLTCLVKGFYPSDIAVEWESNGQPENNYKTTPPMLDSDGSFFLYSKLTVDKSRWQQGNVFSCSVMHEALHNHYTQKSLSLSPGK
light: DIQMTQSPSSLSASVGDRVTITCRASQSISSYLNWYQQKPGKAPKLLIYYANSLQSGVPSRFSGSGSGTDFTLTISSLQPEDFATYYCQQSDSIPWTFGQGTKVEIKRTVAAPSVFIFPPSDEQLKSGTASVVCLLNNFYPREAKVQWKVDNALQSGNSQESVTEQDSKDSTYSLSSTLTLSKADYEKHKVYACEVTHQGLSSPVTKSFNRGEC
notes: IgG2sigma/kappa; also called VH C4LH165; VL C4LL49
B6: C4LB5 (antibody, V domains shown)
VH: QVQLVQSGAEVKKPGSSVKVSCKASGGTFSSYAISWVRQAPGQGLEWMGGIIPIFGTANYAQKFQGRVTITADESTSTAYMELSSLRSEDTAVYYCARGASVWDGPAEVFDYWGQGTLVTVSS
VL: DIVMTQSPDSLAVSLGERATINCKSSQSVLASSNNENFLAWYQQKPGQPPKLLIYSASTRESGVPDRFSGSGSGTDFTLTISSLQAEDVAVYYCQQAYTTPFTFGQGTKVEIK
notes: Phage-derived; IgG2sigma effector silent mAb (V234A, G237A, P238S, H268A, V309L, A330S, P331S), kappa; also called VH C4LH12; VL C4LL8
B7: C4LB150 (antibody, V domains shown)
VH: QLQLQESGPGLVKPSETLSLTCTVSGGSISSYSFYWGWIRQPPGQGLEWIGSLYYSGSTYYNPSLKSRATMSVVTSKTQFSLNLNSVTAADTAVYYCARLQLGTTTDYFDHWGQGTLVTVSS
VL: SYELTQPPSVSVSPGQTASITCSGDELGDKFACWYQQKPGQSPVLVIWQENKRPSGIPERFSGSNSGNTATLTISGTQAMDEADYYCQAWDSDTAVFGGGTKLTVL
notes: IgG2sigma effector silent mAb; lambda VL (OmniRat antibodies were cloned as IgG2sigma/lambda); also called VH C4LH201; VL C4LL82
B8: C4LB199 (antibody, V domains shown)
VH: QVQLQESGPGLVKPSETLSLTCTVSGDSISSFIYYWGWIRQPPGKGLDWVGCIYSSGGTYYNPSLKSRVTISVDTSKNQFSLKLPSVTAADTAVYYCARLWLGTTTDYFDYWGQGTLVTVSS
VL: B7 VL with A18V, E26K, L45V, W48Y, E50D, N51D, N65T, D93N, A95V
notes: IgG2sigma effector silent mAb; lambda VL; also called VH C4LH250; VL C4LL125
B9: C4LB94 (antibody, V domains shown)
VH: QVQLVQSGAEVKKPGSSVKVSCKASGGTFSSYAISWVRQAPGQGLEWMGGISPYFGNTNYAQKFQGRVTITADESTSTAYMELSSLRSEDTAVYYCARDTGWVGAFYLDYWGQGTLVTVSS
VL: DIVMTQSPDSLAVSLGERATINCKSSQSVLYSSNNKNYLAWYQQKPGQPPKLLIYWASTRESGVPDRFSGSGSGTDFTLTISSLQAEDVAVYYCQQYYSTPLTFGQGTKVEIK
notes: IgG2sigma, kappa; also called VH C4LH99; VL PH9L2
B10: C4LB119 (antibody, V domains shown)
VH: QVQLVQSGAEVKKPGSSVKVSCKASGGTFSSYYISWVRQAPGQGLEWMGAIDPYFGYANYAQKFQGRVTITADESTSTAYMELSSLRSEDTAVYYCARTGLNYGGFDYWGQGTLVTVSS
VL: EIVLTQSPATLSLSPGERATLSCRASQSVSSYLAWYQQKPGQAPRLLIYDASNRATGIPARFSGSGSGTDFTLTISSLEPEDFAVYYCQQRSNWPLTFGQGTKVEIK
notes: IgG2sigma

Columns and labels:
[1] = molecular target: T1, shCD154-his (soluble human CD154, His6 …); assay: cell-based or functional assay
[2] = molecular target: T1, shCD154-his (soluble human CD154, His6 …); assay: SPR (ProteOn XPR36) as in Example 1, human CD154; mean ± SD, n = 4
Procedure: (§1) Affinity measurements using Surface Plasmon Resonance (SPR) were performed using a ProteOn XPR36 system (BioRad). […] Approximately 4700 RU (response units) of test antibodies were immobilized. The kinetic experiments were performed at 25° C. in running buffer (DPBS+0.03% polysorbate P20+100 μg/ml BSA). […] The association phase was monitored for 3 minutes at 50 μL/min followed by 15 minutes of buffer flow (dissociation phase). The chip surface was regenerated with two 18 second pulses of 100 mM H₃PO₄ (Sigma, Cat#7961) at 100 μL/min.
(§2) The collected data were processed using ProteOn Manager software. First, the data was corrected for background using inter-spots. Then, double reference subtraction of the data was performed by using the buffer injection for analyte injections. The kinetic analysis of the data was performed using a Langmuir 1:1 binding model.

[3] = molecular target: T1, shCD154-his (soluble human CD154, His6 …); assay: SPR (ProteOn XPR36), protocols of Example 1; analyte not given
Procedure: as §1, §2

[4] = molecular target: T3, shCD154-ILZ (soluble human CD154, leucine zipper fusion) (human); assay: cell-based or functional assay
[5] = molecular target: T2, human CD154 endogenously expressed on …; assay: cell-based or functional assay
[6] = molecular target: T1, shCD154-his (soluble human CD154, His6 …); assay: SPR (ProteOn XPR36), antibody captured via anti-human IgG Fc, shCD154-his analyte, 25 C, 1:1 Langmuir model
Procedure: as §1, §2
(§3) Affinity measurements were done using ProteOn as described in Example 1.

[7] = molecular target: T3, shCD154-ILZ (soluble human CD154, …); assay: cell-based or functional assay; remark: listed apart in the source
[8] = molecular target: T1, shCD154-his (soluble human CD154, His6 …); assay: SPR (ProteOn XPR36), antibody captured via anti-human IgG Fc, shCD154-his analyte, 25 C, two-states binding model
Procedure: as §1, §3

Binder | NF-κB SEAP reporter gene assay; IC50 (nM); shCD154-ILZ [4] [nM] | NF-κB SEAP reporter gene assay; IC50 (nM); D1.1 Jurkat [5] [nM] | Kd [6] [nM] | koff [6] [s⁻¹] | kon [6] [M⁻¹ s⁻¹] | further results
B1 | – | – | – | – | – | NF-κB SEAP reporter gene assay; IC50 [1]: 2.56 nM; Kd [2]: 0.0236 nM; koff [2]: 6.05e-05 s⁻¹; kon [2]: 2.59e+06 M⁻¹ s⁻¹
B2 | – | – | – | – | – | Kd [3]: 2.23 nM; koff [3]: 0.0047 s⁻¹; kon [3]: 2.1e+06 M⁻¹ s⁻¹
B3 | 1.63 | 2.06 | 0.581 | 0.000206 | 355000 | –
B4 | – | – | 0.0313 | 0.000176 | 5.62e+06 | –
B5 | – | – | 0.235 | 0.00038 | 1.61e+06 | NF-κB SEAP reporter gene assay; IC50 [1]: 6.22 nM
B6 | 0.54 | 1.55 | 0.312 | 0.000178 | 570000 | B cell activation assay; IC50 (nM); shCD154-ILZ/cyno B cell [7]: 5.35 nM; B cell activation assay; IC50 (nM); shCD154-ILZ/human B cells [7]: 2.74 nM
B7 | 4.95 | 3.57 | – | – | – | Kd [8]: 2.72 nM; koff [8]: 0.00617 s⁻¹; kon [8]: 2.27e+06 M⁻¹ s⁻¹
B8 | 1.09 | 1.21 | 0.253 | 0.000404 | 1.6e+06 | –
B9 | 4.37 | 0.13 | – | – | – | Kd [8]: 2.09 nM; koff [8]: 0.00329 s⁻¹; kon [8]: 1.58e+06 M⁻¹ s⁻¹
B10 | – | – | – | – | – | Kd [3]: 4.79 nM; koff [3]: 0.0088 s⁻¹; kon [3]: 1.84e+06 M⁻¹ s⁻¹
